Data taken from the DeepSol protein solubility set.

Experiment: soluble on expression in E. coli; label from the status in PepcDB or PDB records

Row | Sequence | soluble on expression in E. coli
1 | MTKKSTKSEAASKTKKSGVPETGAQGVRAGGADHADAAHLGTVNNALVNHHYLEEKEFQTVAETLQRNLATTISLYLKFKKYHWDIRGRFFRDLHLAYDEFIAEIFPSIDEQAERLVALGGSPLAAPADLARYSTVQVPQETVRDARTQVADLVQDLSRVGKGYRDDSQACDEANDPVTADMYNGYAATIDKIRWMLQAIMDDERLD | soluble
2 | MGSDKIHHHHHHMYTDADRSREVVPEKDGHDKKWRDEFGRDYGRIIHSASFRRQQGKTQVFPSRESDFFRNRLTHSLEVAQIAQGIAERINYDYDKDLGGKIDPRLCATAGLVHDIGHPPFGHNGESALDKAMQRYGGFEGNAQTLRILTRLEKKLRYAEPLAGDDRAGLNLCHRTIAATLKYDNEIPAIRKAADGFVKGYYGSEKIIVDRVKASVLNGYVLGAEEKFCTIECSIMDLADDIAYSVYDLEDCFKVGFLSPAEMLASDDALLSAVAKRASKPMKRTVTINEIQAVFMEIFSEIIEQPAEDADSPLDGIVIEDDIAQQAKRDESLLTFAEAYRTSKVMSEDGYKRTEFSSELVHQFISGVELKAHKECPSLSQIYLPEKLMLRKEVLKQYTFVAAIYAPRVKLGEYRGYDLVTDIFKALMGDRGDLLMPADVRGRIRKAPNVSVKAREVCDFVAGMTDRYAMEFWARLNSDAAESMFKPI | not soluble
3 | SSLCEDMLLCNYRKCRIKLSGYAWVTACSHIFCDQHGSGEFSRSPAICPACNSTLSGKLDIVRTELSPSEEYKAMVLAGLRPEIVLDISSRALAFWTYQVHQERLYQEYNFSKAEGHLKQMEKIYTQQIQSKDVELTSMKGEVTSMKKVLEEYKKKFSDISEKLMERNRQYQKLQGLYDSLRLRNITIANHEGTLEPSMIAQSGVLGFPLGNNSKFPLDNTPVRNRGDGDGDFQFRPFFAGSPTAPEPSNSFFSFVSPSRELEQQQVSSRAFKVKRI | not soluble
4 | MGSDKIHHHHHHMGHATEIQVLVVDESAPSRAFIASTLENGGYIVTSVASGEEAVHEVNAAPFDILVTDINLPGMSGLNLLKLLKDSFPDLEVVIVTSNASSFTAIKALRLGAYDFIIKPVDDPAILTNIVGRAVEKQSLTRENRRLMDDMKLKNRELHDALHLMKSANRLCTAISASLDAGEILKRLVEGAVEEVKAKKGYLLLLDRDGSSFSMKVSVGVSRTLAKGFRLRHDQGIAGLVATNNKPLRIDEEVPPPLTHRMLEEDPNGELFTTPGIVTVPLQFKGRVAGVVTLSGRADGRAFTDAEIEFLTTLANHSAIALDTAGAFYKLRKGTS | not soluble
5 | MLEKWEPIMAETRKLKYDEAALRTLTREDLDALEIGAGILGTGGGGNPYLGKLLALEAMKAGYEMKILATDAIEPDALCMSIGGIGAPVVGVERIREGREGLRCLRAMEELIRTPVDAIVCEEIGGSNSMNPLVTAALGGLPILDCDGMGRAFPEMQMTTFSIYGHSSTPSVMCDLHGNAVIFSHAVSEVWHERMARACVVAQGGGAMLATAPMQAHYVHQYGIPKTYTKAIAIGEAVIRARKQQEDPIAAVCALEGGRRIFNGKITDLKRHLRGGFAVGDLTLSGFDDCAGQTAGVAIQNEFLLFSRDGKVEVTVPDLIVLLDVDTGYPITTEVLRYGQRVAVIAIPCHDLLRSARALEVVGPAAFGYPDIPFSPLPLPVSKAALEHHHHHH | soluble
6 | KDIYASMETARREGKSFNTWKKGLVDEMERKGWVAGRDKKLGRGLDGTLLADPKTGEYFGTPRRLNTIYRVNMQAAYSGARYQRMMDNVDNRPYWKYSAVSDSRTRPAHLALNGRVYRYDAPFWATFYPPNGFNCRCTVI | not soluble
7 | MSLGMPSKQREYSNRFFDSTVWNDFAFRDDDVVIASYAKAGTTWVQQIVAQLIFGGAEEIEVSRLSPWFDSVYPDKATKQRLLAEQRHRRFVKTHLPADALVLSERARYLYVGRDARDIVWSLYDHQRAVSADAQARLDAEPSSNGKLRVMPPPTCSVEDYFQTWMRADGAPLWPFWEGVRSWWALRDYDNVLLVHYAALLHDLPAQVRRIAAFLDIPLDAPCCERVLAHCSLDYMRAHAARYVPQGAGFWRDGGRAFFNQGLNGRWRDRLAPAVDAAYRQHVVAELGAECARWLATGDVASEGHHHHHH | soluble
8 | MAHHHHHHMSDLRRVESLNADTFRRLNATSVVKSFWHTQLRAATAASRGAKDDSLATANEETPVATRKLRSAASSAEKSAGGLTDSTVYSSSSSSSNSRLSVSATLPGFPSPTETRRRLRAAALSAERHRAEESDEEKPDPVARTLFQNFLLQEYDALDSRPVLTVVLDLDETLVSNRDSGATGAILRPYCLHMLNALRHMQGLEVVLWTASTKETAAPVIRQLSQSGPVFDDVICRNSSWFTEPLHTKDLRLLGRDMSRVIIFDNSTACCKLNPRNAVIVDDFRGVRNTSDAALVNVYYIIERSFNGCCAGVSVLETLVKLAVEKQLCMPEVLHLPESWRHIPLREIAPLKVPPHGIFFRAHSTPLNDSIMQHWTV | soluble
9 | GDAFCNPQATMDFLRFKLHQHQREVFAVMMLDSQHRLIEFNEMFFGTIDSASVYPREVVKAVLLCNAAAVIFAHNHPSGCAEPSSADRRITERLIAALATIDVPVLDHIVVADTCVSFAERGLL | not soluble
10 | MKLSVYVASAFSKDHKGGNKAGVVFIENSLTTTQKMAIAKQLGYAETAFISESEIADYKFEYFTPKEEVDLCGHATIGSFAILMHLNKLFRNRYTIETNSGVLTITIKDDSIFMEQNNPIFYDVVSPNEFIDCFDMKAIDNKYPIQIVSTGLKDILIPIKSETRLHALQPSFEKIKEISKYYNVVGMHLYTFNDDRIICRNFAPLYDINEEAATGTSNGALACYLHEQHNLQKEVYVFEQGYSLQSPSEILVTLATNSKNEIEKVYVGGKGYYCETKCLNVENME | not soluble
11 | MGSDKIHHHHHHMQRYDAVISGAGPAGCSAALSLAQKGRRVLLIDKARFPREKICGDGVTAASTELLEEMGVLELLRQRPGSLTEFRGATFVSPGGTVVQGRILRNGHLSGSSYVIPRMVLDDSLVSRVKEHSSITFLDKTTVTGLVMDGDRARGVATSAGEFCGRIIIAADGAYSPIAKQLDLWNRDKRQQGFAMRAWFSGVEGLGDSIELCYDKAMLPGYGWIFPAGEQRANVGVFLLPRFADQRSTKRLFKSFVKENAFAAARLKNAVMEPGSLKSWPLPFGSFAGRRGRGNVLLAGDAGSFIDPLTGEGIYYALKTGRYAAEAVANALERNDESAALTRYEQLWRGEFSGRVYFPGYAFQHFMNNSWFVDTFMRYTAKKQHRADLLADVVAHNRKRRELFKLLNPFY | not soluble
12 | MGSDKIHHHHHHMLTLRQALLALFHQFETLFHYLEHLCRHRSAARPGRSSFLHSSVEIQVKETLIRNLWYVAGTSDEFAPGQLVGQTIVGLPLVLWRPEAGGEVVAFDGRCCHKRMPLAAGKLLADGTLECAYHGLCFDSAGKCVKIPSQPGRAIPSRAKLRPYPIVEQDGMVWIWMGDDANPALRPPRIPELASPEWEAIRVQNAEVPTNYLLLIENLLDISHFYPLHDGNIGDIANSEIPVEFSHEGVQGNRSVTSVRKAESYRHPPYLEDFFGYELVDRHHSHSMISPAAIRVDLRCAPPGRLETEDERGYILTHLITPIDERHHRWRVIAACRAGHRWPADPSVSTVARVAEKFPGVIAQDLWALTEQQKMLDLADTHYLGEMHLRADTGILKAREIVRDMVAAEAQPASQAVAA | not soluble
13 | MGSKYSKATNSINDALSSSYLVPFESYRVPLVDLEEATNNFDHKFLIGHGVFGKVYKGVLRDGAKVALKRRTPESSQGIEEFETEIETLSFCRHPHLVSLIGFCDERNEMILIYKYMENGNLKRHLYGSDLPTMSMSWEQRLEICIGAARGLHYLHTRAIIHRDVKSINILLDENFVPKITDFGISKKGTELGQTHLSTVVKGTLGYIDPEYFIKGRLTEKSDVYSFGVVLFEVLCARSAIVQSLPREMVNLAEWAVESHNNGQLEQIVDPNLADKIRPESLRKFGDTAVKCLALSSEDRPSMGDVLWKLEYALRLQESVIHHHHHH | soluble
14 | MRTSNYLLSTLKETPNDAEVVSHQLMLRAGMIRKLASGLYTWLPTGLRVLRKVENIVRQEIDNAGAVETLMPVVQPFELWEETGRSEKMGPELLRFTDRHVRPFVLSPTAEEVITSLVRNEVSSYKQLPLNLYQIQTKFRDERRPRFGVMRAREFCMMDAYSFDIDKAGLEKSYQAMHDAYCKAFDRMGLEYRPVLADSGAIGGSGSQEFHVLADSGEDLIAFSTESDYAANIEKAEALAPAVERAEPTQEMTLVDTPNAKTIAELVEQHGLPIEKTVKTLFVKASDEIDAPIIALIVRGDHELNEVKAENLPQVASPLEMASEEEIRELIGAGPGSLGPVGLELPFIVDRSVAVMSDFGAGANIDGKHYFGINWGRDVELGQVEDLRNVVEGDPSPCGKGTLMLK | not soluble
15 | MRLILLALLALVFPAVAQEDMPAKVWLEKMSQALKEKEFKASIIQLQADHIRPLVYLHGKVNNQEVAFLEYLNGPPKNAVRVGNRVTFIEHDQPAYSILSNHIQGVWPAAFSSQMSDLEVGYQFVMGGRTRIAGRPGQMIRLLPNDEYRYGFQIWLDMDTYLPLRYDMLTQDKQLLEQLMVIELIEFSEPPSILQEAYKQEWPAVIDQAERQDGQNWQFSWLPAGFSVVVRDHHRLIGSHEAVEYIALTDGLANISIYVARAGSTPLPEELITRNGLSLVAEKVGNAEVVAVGKVPTETLARIAKSLMLK | not soluble
16 | MATAAETSASEPEAESKAGPKADGEEDEVKAARTRRKVLSRAVAAATYKTMGPAWDQQEEGVSESDGDEYAMASSAESSPGEYEWEYDEEEEKNQLEIERLEEQLSINVYDYNCHVDLIRLLRLEGELTKVRMARQKMSEIFPLTEELWLEWLHDEISMAQDGLDREHVYDLFEKAVKDYICPNIWLEYGQYSVGGIGQKGGLEKVRSVFERALSSVGLHMTKGLALWEAYREFESAIVEAARLEKVHSLFRRQLAIPLYDMEATFAEYEEWSEDPIPESVIQNYNKALQQLEKYKPYEEALLQAEAPRLAEYQAYIDFEMKIGDPARIQLIFERALVENCLVPDLWIRYSQYLDRQLKVKDLVLSVHNRAIRNCPWTVALWSRYLLAMERHGVDHQVISVTFEKALNAGFIQATDYVEIWQAYLDYLRRRVDFKQDSSKELEELRAAFTRALEYLKQEVEERFNESGDPSCVIMQNWARIEARLCNNMQKARELWDSIMTRGNAKYANMWLEYYNLERAHGDTQHCRKALHRAVQCTSDYPEHVCEVLLTMERTEGSLEDWDIAVQKTETRLARVNEQRMKAAEKEAALVQQEEEKAEQRKRARAEKKALKKKKKIRGPEKRGADEDDEKEWGDDEEEQPSKRRRVENSIPAAGETQNVEVAAGPAGKCAAVDVEPPSKQKEKAASLKRDMPKVLHDSSKDSITVFVSNLPYSMQEPDTKLRPLFEACGEVVQIRPIFSNRGDFRGYCYVEFKEEKSALQALEMDRKSVEGRPMFVSPCVDKSKNPDFKVFRYSTSLEKHKLFISGLPFSCTKEELEEICKAHGTVKDLRLVTNRAGKPKGLAYVEYENESQASQAVMKMDGMTIKENIIKVAISNPPQRKVPEKPETRKAPGGPMLLPQTYGARGKGRTQLSLLPRALQRPSAAAPQAENGPAAAPAVAAPAATEAPKMSNADFAKLFLRK | soluble
17 | GSHMRKIQRYVRKDGKCNVHHGNVREKRAETLVFSTHAVISMRDGKLCLMFRVGDLRNSHIVEASIRAKLIKSKQTSEGEFIPLNQTDINVGYYTGDDRLFLVSPLIISHEINQQSPFWEISKAQLPKEELEIVVILEGMVEATGMTCQARSSYITSEILWGYRFTPVLTLEDGFYEVDYNSFHETYETSTPSLSAKELAELANRAEV | soluble
18 | RPVGTIFVIGDTKEVMKHSHQLVPNPFKGHKINIMNPKVKPIIKEFSFLDGAFIISSTGRVVAAGRYLDVDPKKLEIDIPQGLGSRHLASAAITKVTKAIAITLSESGVIRVFKDGK | soluble
19 | MVFKPHRINCRDFTFKIELKEKKILRGRAMLDKIDRKLLALLQQDCTLSLQALAEAVNLTTTPCWKRLKRLEDDGILIGKVALLDPEKIGLGLTAFVLIKTQHHSSEWYCRFVTVVTEMPEVLGVWRMAGEYDYLMRVQVADMKRYDEFYKRLVNSVPGLSDVTSSFAMEQIKYTTSLPIE | not soluble
